Results taken from patent US6635450.

Legend:
[1] = system: Kip1 (28-79), 52-amino acid peptide with a C-terminal hexahistidine tag
[2] = system: recombinant mouse Kip1 with a C-terminal hexahistidine sequence (expressed in BL21(DE3) bacteria from pET21a)
[3] = biological target: His-cyclin E-Cdk2 complex (baculoviral human cyclin E with N-terminal hexahistidine, in complex with baculoviral Cdk2) (human) (UniProt P24864); experiment: cell-based or functional assay
[4] = biological target: human cyclin A-Cdk2 complex (baculovirally expressed) (human) (UniProt P20248); experiment: cell-based or functional assay

Sequence of recombinant mouse Kip1 with a C-terminal hexahistidine sequence (expressed in BL21(DE3) bacteria from pET21a) (chain, as listed by the source): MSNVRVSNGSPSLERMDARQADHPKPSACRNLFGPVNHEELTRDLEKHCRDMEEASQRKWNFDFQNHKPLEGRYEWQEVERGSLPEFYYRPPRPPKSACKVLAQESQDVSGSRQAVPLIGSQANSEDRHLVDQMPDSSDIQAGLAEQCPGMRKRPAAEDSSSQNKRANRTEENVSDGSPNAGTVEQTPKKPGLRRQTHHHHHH
Sequence of Kip1 (28-79), 52-amino acid peptide with a C-terminal hexahistidine tag (chain, as listed by the source): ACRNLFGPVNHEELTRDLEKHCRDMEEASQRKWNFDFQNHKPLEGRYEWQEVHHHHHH

| Substance | Rb phosphorylation [1] | Rb kinase activity (phosphorylation of a GST-Rb fusion product) [2] | cyclin E-associated histone H1 kinase activity and Thr160-phosphorylated form of Cdk2 on western blot [2] | histone H1 kinase activity, half-maximal inhibition [3] [nM] | histone H1 kinase activity, concentration for complete inhibition [4] [fold] |
| --- | --- | --- | --- | --- | --- |
| His-cyclin E-Cdk2 complex (baculoviral human cyclin E with N-terminal hexahistidine, in complex with baculoviral Cdk2) | inhibited cyclin E-Cdk2 or cyclin D2:Cdk4 less effectively | Addition of Kip1 to cyclin E-Cdk2, cyclin A-Cdk2 or cyclin D2-Cdk4 complexes inhibited their ability to phosphorylate a GST-Rb fusion product | – | – | – |
| cyclin E-Cdk2 complexes assembled in A549 cell extracts (added histidine-tagged baculoviral cyclin E with the endogenous Cdk2) | – | – | Addition of histidine-tagged Kip1 to the cell extracts markedly decreased the level of cyclin E-associated kinase activity | – | – |
| human cyclin A-Cdk2 complex (baculovirally expressed) | This peptide inhibited Rb phosphorylation by cyclin A-Cdk2 with a potency that was close to that of full length Kip1 | Addition of Kip1 to cyclin E-Cdk2, cyclin A-Cdk2 or cyclin D2-Cdk4 complexes inhibited their ability to phosphorylate a GST-Rb fusion product | – | – | – |
| recombinant mouse Kip1 with a C-terminal hexahistidine sequence (expressed in BL21(DE3) bacteria from pET21a) (from UniProt P46414 1-197) | – | – | – | 0.5 | 8 |
